Experimental data: patent publication US20180282409A1 (Hoffmann-La Roche, published 2018)
Positions count from the first letter of the chain named. Numbers in names are those of the source.

T1: cynomolgus monkey CD19 extracellular domain (ECD) fused to the human PSCA GPI anchor sequence, on transfected … (cynomolgus monkey; human)
T1 construct: Presented on the surface of transiently transfected HEK293 cells; its processing in the cell is not described; also called cynomolgus CD19-ECD; cyCD19 ECD
T1 chain: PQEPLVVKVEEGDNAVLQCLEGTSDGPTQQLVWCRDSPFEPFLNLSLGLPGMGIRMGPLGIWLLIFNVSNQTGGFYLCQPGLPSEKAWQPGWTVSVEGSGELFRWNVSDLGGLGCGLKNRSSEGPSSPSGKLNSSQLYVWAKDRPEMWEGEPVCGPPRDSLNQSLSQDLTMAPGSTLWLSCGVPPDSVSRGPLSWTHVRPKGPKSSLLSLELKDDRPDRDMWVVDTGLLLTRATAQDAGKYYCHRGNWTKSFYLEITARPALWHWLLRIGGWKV

T2: extracellular domain of recombinant human CD19 receptor (human, UniProt P15391 20-291)
T2 construct: extracellular domain; also called recombinant human CD19 ECD
T2 sequence (looked up): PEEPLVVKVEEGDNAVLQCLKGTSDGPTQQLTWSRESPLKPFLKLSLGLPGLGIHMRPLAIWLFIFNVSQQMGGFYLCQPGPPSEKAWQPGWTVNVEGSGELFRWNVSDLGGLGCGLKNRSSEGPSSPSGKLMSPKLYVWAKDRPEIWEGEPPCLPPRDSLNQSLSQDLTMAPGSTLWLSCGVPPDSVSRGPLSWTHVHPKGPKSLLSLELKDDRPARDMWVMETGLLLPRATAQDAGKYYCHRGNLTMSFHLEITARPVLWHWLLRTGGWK

B1: wild-type humanized anti-human CD19 antibody (var.0: wt) (antibody, V domains shown)
VH: EVQLQQSGPELVKPGASVKMACKASGYTFTDYIMHWVKQKTGQGLEWIGYINPYNDGSKYTEKFNGKATLTSDKSSITAYMELSSLTSEDSAVYYCARGTYYYGSALFDYWGQGTTLTVSS
VL: DAVMTQTPLSLPVSLGDQASISCRSSQSLENSNGNTYLNWYLQKPGQSPQLLIYRVSKRFSGVLDRFSGSGSGTDFTLKISRVEAEDLGVYFCLQLTHVPYTFGGGTKLEIK
notes: it was detected with anti-human IgG and captured with anti-human Fab; also called variant 0: wt; humanized wild-type antibody
B2: humanized anti-human CD19 antibody var.5:S27eP (antibody, V domains shown)
VH: QVQLVQSGAEVKKPGASVKVSCKASGYTFTDYIMHWVRQAPGQGLEWMGYINPYNDGSKYTEKFQGRVTMTSDTSISTAYMELSRLRSDDTAVYYCARGTYYYGSALFDYWGQGTTVTVSS
VL: DIVMTQTPLSLSVTPGQPASISCKSSQSLENPNGNTYLNWYLQKPGQSPQLLIYRVSKRFSGVPDRFSGSGSGTDFTLKISRVEAEDVGVYYCLQLTHVPYTFGQGTKLEIK
notes: also called variant 5 (S27eP); variant 5
B3: humanized anti-human CD19 antibody var.9:S27eP/N28S (antibody, V domains shown)
VH: B2 VH
VL: B2 VL with N33S
notes: also called variant 9 (S27eP/N28S); variant 9

Key:
[1] = target: T1, cynomolgus monkey CD19 extracellular …; assay: flow cytometry on HEK293 cells presenting cynomolgus CD19 ECD by GPI anchor
Experimental: HEK293 cells were transfected with 1 μg of plasmid DNA per 1.5×10⁶ cells using LipofectAmine 2000 and incubated thereafter for 48 hours at 37° C. […] GWKV; SEQ ID NO: 31) extracellular domain (ECD) fused to the human PSCA GPI anchor sequence ([…] WGPGQL; SEQ ID NO: 32) for extracellular presentation. […] The starting concentration of the antibodies was set to 60 μg/mL (2× final concentration) and then diluted in a 1:3 (v/v) titration series. The primary antibody was incubated on the cells for one hour at room temperature, followed by two wash steps. For secondary detection, anti-huIgG (H+L) antibody conjugated to Alexa488 in a concentration of 30 μg/mL was used.

[2] = target: T2, extracellular domain of recombinant …; assay: SPR (BIAcore), half-life of the complex

Binder | EC50 [1] | t1/2 [2]
B1 | 0.313 mg/L | –
B2 | – | 43.6 min
B3 | – | 4 min
